Assay results: patent US8703460B2, “Method for the production of an additive for the enzymatic decomposition of mycotoxins, additive, and use thereof” (Erber Aktiengesellschaft, priority 2008, dated 2014)

B1: aminotransferase ID No. 19: HFB1 aminotransferase encoded by fumI (sequence ID No. 18) (protein, listed as Sphingopyxis sp.)
chain: MANGTRQKDLRERAERVIPGGMYGHESTRLLPPEFPQFFRRALGARIWDADEQPYIDYMCAYGPNLLGYRQSEIEAAADAQRLLGDTMTGPSEIMVNLAEAFVGMVRHADWAMFCKNGSDATSTAMVLARAHTGRKTILCAKGAYHGASPWNTPHTAGILASDRVHVAYYTYNDAQSLSDAFKAHDGDIAAVFATPFRHEVFEDQALAQLEFARTARKCCDETGALLVVDDVRAGFRVARDCSWTHLGIEPDLSCWGKCFANGYPISALLGSNKARDAARDIFVTGSFWFSAVPMAAAIETLRIIRETPYLETLIASGAALRAGLEAQSQRHGLELKQTGPAQMPQIFFADDPDFRIGYAWAAACLKGGVYVHPYHNMFLSAAHTVDDVTETLEATDRAFSAVLRDFASLQPHPILMQLAGA
modifications: Seq ID 19 (FumI)
B2: aminotransferase ID No. 25: HFB1 aminotransferase encoded by sequence ID No. 24 (protein, listed as Caulobacter sp.)
chain: MELSRQRDQALRERAQAVIPGGMYGHESTYLMPEGTPQFFSRGKGARLWDADGNEYVDYMCAYGPNLLGYGFEPVEAAAAAQQARGDTLTGPSEVMVQLAEDFVAQISHADWAMFCKNGTDATSMAMVIARAHTGRKTILCAKGAYHGAAPWCTPILAGTLPEDRAFVVYYDYNDAQSLVDAFEAHQDDVAAIFATPHRHEVFSDQIDPDPEYAASVRALCDKSGALLVVDEVRAGFRIARDCSWAKIGVAPDLSTWGKCFANGYPISAVLGGEKVRSAAKAVYVTGSFWFSATPMAAAVETLKQIRETDYLERINAAGTRLREGLQQQAAHNGFTLRQTGPVSMPQVLFEEDPDFRVGYGWVRECLKRGVYFSPYHNMFLSAAHSEADLAKTLAATGDAFVELRAKLPSLEIHQPLLALRAA
modifications: Seq ID 25

Legend:
piglets = assay: Feeding test with piglets; assay type: in vivo, pigs; conditions: Positive control: 4-5.5 ppm fumonisin B1 in feed, no enzyme
Description: The test was performed in a test stable with 12 stalls for 10 animals each. The stable was equipped with a slatted floor, pan troughs and a computer-controlled feeding system. The automats were arranged along the stall walls. Every day, the stable climate was automatically recorded, and the temperature was set according to the standard recommendations for piglet breeding.
For this test, 120 mixed-sex weaned pigs (age: about 4 weeks, average setting weight: 8.21 kg) were used. Each piglet was earmarked and individually weighed. The 120 piglets were randomly distributed among 12 stalls. All piglets came from the Austrian Breeding Program ÖHYB (=(large white×landrace)×Pietrain).
Immediately upon weaning, the piglets were fed with a starter feed for two days, after this settling-in period the changeover to the test feed took place. Feeding was effected in two phases: Weaning phase days 1-14, breeding phase days 15-42. The test feed was mixed individually per stall via the spotmix feeding installation and allotted in dry form twice a day as a function of the number of piglets, weight development and feed consumption. Water was available ad libitum. The 12 stalls were divided into four different application groups at three repetitions each and received the following admixtures in the above-described feed: […]

[1] = Catalytic activity of HFB1 aminotransferase in E. coli lysate; assay type: biochemical; conditions: 25° C.; for degradation of the hydrolyzed fumonisin to 2-keto-HFB1: cosubstrate added (α-keto acid e.g. pyruvic acid, or oxalacetate); for reduction of the hydrolyzed FB1 concentration: no cosubstrate, 50 mM sodium phosphate buffer
Description: Sequences ID Nos. 18 and 24 were cloned using standard procedures and expressed in E. coli under the control of a bacteriophage T7 promoter. The bacterial cells were collected, resuspended in 50 mM sodium phosphate buffer and lyzed under ultrasonic action. Hydrolyzed fumonisin was added, and the samples were incubated at 25° C. Samples were taken at time intervals and analyzed by HPLC-MS/MS. No reduction of the hydrolyzed FB1 concentration was observed. […] This substance is totally harmless for mammals.

[2] = assay type: biochemical; conditions: corn mash after carboxylesterase treatment; FIG. 5
Description: Samples of corn mash for the production of bioethanol were taken and incubated at 30 to 65° C. under stirring, the degradation of fumonisin B1 having been investigated after the addition of 770 units of carboxylesterase ID No. 9 per cubic meter of mash under stirring (stirring time in minutes). Samples were inactivated by boiling-up after having been taken and subsequently centrifuged for analysis, and an aliquot of the supernatant was evaporated. The residue was taken up in 200 μl sample buffer containing C^13-labelled internal fumonisin standard, shaken for 1.5 min, centrifuged off, and then subjected to LC-MS-analysis.

Row | Molecule | respiratory problems observed (piglets) | Final weight (average, kg) (piglets; 42 days) | degradation of the hydrolyzed fumonisin to 2-keto-HFB1 [1] | reduction of the hydrolyzed FB1 concentration [1] | degradation of hydrolyzed fumonisin HFB1 [2]
1 | CCCC[C@@H](C)[C@@H](OC(=O)C[C@@H](CC(=O)O)C(=O)O)[C@H](C[C@@H](C)C[C@H](O)CCCC[C@@H](O)C[C@H](O)[C@H](C)N)OC(=O)C[C@@H](CC(=O)O)C(=O)O [fumonisin B1] | almost half of the animals | 24.77 kg |  |  | 
2 | B1 |  |  | complete degradation | No reduction | completely degraded
3 | B2 |  |  | complete degradation | No reduction | 
